Laboratory results published in PMC6133773.

What was measured:
[1] = substrate: C[C@](O)(CO)[C@H](O)CCP(=O)(O)O; experiment: purified protein; details: Mg2+; CTP active site (alternative substrate)
[2] = substrate: C[C@](O)(CO)[C@H](O)CC(F)(F)P(=O)(O)O; experiment: purified protein; details: Mg2+; CTP active site (alternative substrate)
[3] = substrate: C[C@](O)(CO)[C@H](O)C=C(F)P(=O)(O)O; experiment: purified protein; details: Mg2+; CTP active site (alternative substrate)
[4] = substrate: C[C@](O)(CO)[C@H](O)C=CP(=O)(O)O; experiment: purified protein; details: Mg2+; CTP active site (alternative substrate)
[5] = substrate: C[C@](O)(CO)[C@H](O)C[C@H](F)P(=O)(O)O; experiment: purified protein; details: Mg2+; CTP active site (alternative substrate)
[6] = substrate: C[C@](O)(CO)[C@H](O)COP(=O)(O)O; experiment: Michaelis-Menten kinetics; type: biochemical, Escherichia coli; details: Mg2+; CTP active site; natural substrate

B1: IspD (Escherichia coli K-12) (protein)
chain: ATTHLDVCAVVPAAGFGRRMQTECPKQYLSIGNQTILEHSVHALLAHPRVKRVVIAISPGDSRFAQLPLANHPQITVVDGGDERADSVLAGLKAAGDAQWVLVHDAARPCLHQDDLARLLALSETSRTGGILAAPVRDTMKRAEPGKNAIAHTVDRNGLWHALTPQFFPRELLHDCLTRALNEGATITDEASALEYCGFHPQLVEGRADNIKVTRPEDLALAEFYLTRTIHQENT
Km [1]: 1300 ± 200 µM | Km [2]: 1900 ± 700 µM | kcat [2]: 0.2 ± 0.0333 s⁻¹ | kcat/Km [2]: 110 M⁻¹ s⁻¹ | Km [3]: 700 ± 500 µM | Km [4]: 4000 ± 1000 µM | kcat [4]: 0.09 ± 0.01 s⁻¹ | kcat/Km [4]: 20 M⁻¹ s⁻¹ | Km [5]: 1000 ± 100 µM | kcat [5]: 0.217 ± 0.01 s⁻¹ | kcat/Km [5]: 220 M⁻¹ s⁻¹ | Km [6]: 100 ± 20 µM | kcat [6]: 18.2 ± 1 s⁻¹ | kcat/Km [6]: 180000 M⁻¹ s⁻¹
